Where “and” joins values, the source holds several entries; their conditions need not be identical. Identical values can stand only once.
System: coxsackievirus B3 (CVB3-GFP)
Type: cell-based
Conditions: HeLa cells, replicate R1; for Percent Infected R1: GFP-positive cells within RFP-positive gate

B1: RNF103: human RING type E3 ligase expressed from lentiviral vector (protein, UniProt O00237 1-685, looked up)
E3 ubiquitin-protein ligase …: MWLKLFFLLLYFLVLFVLARFFEAIVWYETGIFATQLVDPVALSFKKLKTILECRGLGYSGLPEKKDVRELVEKSGDLMEGELYSALKEEEASESVSSTNFSGEMHFYELVEDTKDGIWLVQVIANDRSPLVGKIHWEKMVKKVSRFGIRTGTFNCSSDPRYCRRRGWVRSTLIMSVPQTSTSKGKVMLKEYSGRKIEVEHIFKWITAHAASRIKTIYNAEHLKEEWNKSDQYWLKIYLFANLDQPPAFFSALSIKFTGRVEFIFVNVENWDNKSYMTDIGIYNMPSYILRTPEGIYRYGNHTGEFISLQAMDSFLRSLQPEVNDLFVLSLVLVNLMAWMDLFITQGATIKRFVVLISTLGTYNSLLIISWLPVLGFLQLPYLDSFYEYSLKLLRYSNTTTLASWVRADWMFYSSHPALFLSTYLGHGLLIDYFEKKRRRNNNNDEVNANNLEWLSSLWDWYTSYLFHPIASFQNFPVESDWDEDPDLFLERLAFPDLWLHPLIPTDYIKNLPMWRFKCLGVQSEEEMSEGSQDTENDSESENTDTLSSEKEVFEDKQSVLHNSPGTASHCDAEACSCANKYCQTSPCERKGRSYGSYNTNEDMEPDWLTWPADMLHCTECVVCLENFENGCLLMGLPCGHVFHQNCIVMWLAGGRHCCPVCRWPSYKKKQPYAQHQPLSNDVPS
modifications: lentiviral expression
notes: human RING type E3 ligase expressed from lentiviral vector
For B1, the “Percent Infected R1” value was 96.9% and the “Z score R1” value was 0.11.

B2: RCHY1: human RING type E3 ligase expressed from lentiviral vector; listed twice (protein, UniProt Q96PM5 1-261, looked up)
RING finger and CHY zinc …: MAATAREDGASGQERGQRGCEHYDRGCLLKAPCCDKLYTCRLCHDNNEDHQLDRFKVKEVQCINCEKIQHAQQTCEECSTLFGEYYCDICHLFDKDKKQYHCENCGICRIGPKEDFFHCLKCNLCLAMNLQGRHKCIENVSRQNCPICLEDIHTSRVVAHVLPCGHLLHRTCYEEMLKEGYRCPLCMHSALDMTRYWRQLDDEVAQTPMPSEYQNMTVDILCNDCNGRSTVQFHILGMKCKICESYNTAQAGGRRISLDQQ
With B2 the “Percent Infected R1” value was 97.6% and 91.2% and the “Z score R1” value was 0.11 and 0.03.

B3: RFFL: human RING type E3 ligase expressed from lentiviral vector (protein, UniProt Q8WZ73 1-363, looked up)
E3 ubiquitin-protein ligase …: MWATCCNWFCLDGQPEEVPPPQGARMQAYSNPGYSSFPSPTGLEPSCKSCGAHFANTARKQTCLDCKKNFCMTCSSQVGNGPRLCLLCQRFRATAFQREELMKMKVKDLRDYLSLHDISTEMCREKEELVLLVLGQQPVISQEDRTRASTLSPDFPEQQAFLTQPHSSMVPPTSPNLPSSSAQATSVPPAQVQENQQANGHVSQDQEEPVYLESVARVPAEDETQSIDSEDSFVPGRRASLSDLTDLEDIEGLTVRQLKEILARNFVNYKGCCEKWELMERVTRLYKDQKGLQHLVSGAEDQNGGAVPSGLEENLCKICMDSPIDCVLLECGHMVTCTKCGKRMNECPICRQYVIRAVHVFRS
In the case of B3, the “Percent Infected R1” value is reported as 88.2% and the “Z score R1” value is reported as −0.01.

B4: RSPRY1: human RING type E3 ligase expressed from lentiviral vector (protein, UniProt Q96DX4 17-576, looked up)
RING finger and SPRY …: QGLLLTLEEHIAHFLGTGGAATTMGNSCICRDDSGTDDSVDTQQQQAENSAVPTADTRSQPRDPVRPPRRGRGPHEPRRKKQNVDGLVLDTLAVIRTLVDNDQEPPYSMITLHEMAETDEGWLDVVQSLIRVIPLEDPLGPAVITLLLDECPLPTKDALQKLTEILNLNGEVACQDSSHPAKHRNTSAVLGCLAEKLAGPASIGLLSPGILEYLLQCLKLQSHPTVMLFALIALEKFAQTSENKLTISESSISDRLVTLESWANDPDYLKRQVGFCAQWSLDNLFLKEGRQLTYEKVNLSSIRAMLNSNDVSEYLKISPHGLEARCDASSFESVRCTFCVDAGVWYYEVTVVTSGVMQIGWATRDSKFLNHEGYGIGDDEYSCAYDGCRQLIWYNARSKPHIHPCWKEGDTVGFLLDLNEKQMIFFLNGNQLPPEKQVFSSTVSGFFAAASFMSYQQCEFNFGAKPFKYPPSMKFSTFNDYAFLTAEEKIILPRHRRLALLKQVSIRENCCSLCCDEVADTQLKPCGHSDLCMDCALQLETCPLCRKEIVSRIRQISHIS
In the case of B4, the “Percent Infected R1” value is reported as 91.4% and the “Z score R1” value is reported as 0.04.

B5: RFPL3: human RING type E3 ligase expressed from lentiviral vector (protein, UniProt O75679 1-317, looked up)
Ret finger protein-like 3: MKRLSLVTTNRLSPQGNFLPLCTFPLAVDMAALFQEASSCPVCSDYLEKPMSLECGCTVCLKCINSLQKEPHGEDLLCCCCSMVSQRNKIRPNRQLERLVSHIKELEPKLKKILQMNPRMRKFQVDMTLDADTANNFLLISDDLRSVRSGLITQNRQDLAERFDVSVCILGSPRFTCGRHYWEVDVGTSTEWDLGVCRESVHCKGKIQLTTELGFWTVSLRDGSRLSASTVPLTFLLVDRKLQRVGIFLDMGMQNVSFFDAESGSHVYTFRSVSAEEPLRPFLAPSIPPNGDQGVLSICPLMNSGTTDAPVRPGEAK
modifications: lentiviral expression
notes: as for B1
B5 was tested, and the “Percent Infected R1” value was 78.3% and the “Z score R1” value was −0.13.

B6: MARCH3: human RING type E3 ligase expressed from lentiviral vector (protein, UniProt Q86UD3 1-253, looked up)
E3 ubiquitin-protein ligase …: MTTSRCSHLPEVLPDCTSSAAPVVKTVEDCGSLVNGQPQYVMQVSAKDGQLLSTVVRTLATQSPFNDRPMCRICHEGSSQEDLLSPCECTGTLGTIHRSCLEHWLSSSNTSYCELCHFRFAVERKPRPLVEWLRNPGPQHEKRTLFGDMVCFLFITPLATISGWLCLRGAVDHLHFSSRLEAVGLIALTVALFTIYLFWTLVSFRYHCRLYNEWRRTNQRVILLIPKSVNVPSNQPSLLGLHSVKRNSKETVV
modifications: lentiviral expression
notes: as for B1
With B6 the “Percent Infected R1” value was 91.4% and the “Z score R1” value was 0.04.

B7: RNF13: human RING type E3 ligase expressed from lentiviral vector (protein, UniProt O43567 35-381, looked up)
E3 ubiquitin-protein ligase …: DILAYNFENASQTFDDLPARFGYRLPAEGLKGFLINSKPENACEPIVPPPVKDNSSGTFIVLIRRLDCNFDIKVLNAQRAGYKAAIVHNVDSDDLISMGSNDIEVLKKIDIPSVFIGESSANSLKDEFTYEKGGHLILVPEFSLPLEYYLIPFLIIVGICLILIVIFMITKFVQDRHRARRNRLRKDQLKKLPVHKFKKGDEYDVCAICLDEYEDGDKLRILPCSHAYHCKCVDPWLTKTKKTCPVCKQKVVPSQGDSDSDTDSSQEENEVTEHTPLLRPLASVSAQSFGALSESRSHQNMTESSDYEEDDNEDTDSSDAENEINEHDVVVQLQPNGERDYNIANTV
With B7 the “Percent Infected R1” value was 97.9% and the “Z score R1” value was 0.12.

B8: RNF112: human RING type E3 ligase expressed from lentiviral vector (protein, UniProt Q9ULX5 1-631, looked up)
RING finger protein 112: MPRPALSVTSFCHRLGKRERKQSFMGNSGNSWSHTPFPKLELGLGPQPMAPRELPTCSICLERLRDPISLDCGHDFCIRCFSTHRLPGCEPPCCPECRKICKQKRGLRSLGEKMKLLPQRPLPPALQETCPVRAEPLLLVRINASGGLILRMGAINRCLKHPLARDTPVCLLAVLGEQHSGKSFLLNHLLQGLPGLESGEGGRPRGGEASLQGCRWGANGLARGIWMWSHPFLLGKEGKKVAVFLVDTGDAMSPELSRETRIKLCALTTMLSSYQILSTSQELKDTDLDYLEMFVHVAEVMGKHYGMVPIQHLDLLVRDSSHPNKAGQGHVGNIFQRLSGRYPKVQELLQGKRARCCLLPAPGRRRMNQGHASPGDTDDDFRHLLGAYVSDVLSAAPQHAKSRCQGYWNEGRAVARGDRRLLTGQQLAQEIKNLSGWMGRTGPGFTSPDEMAAQLHDLRKVEAAKREFEEYVRQQDVATKRIFSALRVLPDTMRNLLSTQKDAILARHGVALLCKGRDQTLEALEAELQATAKAFMDSYTMRFCGHLAAVGGAVGAGLMGLAGGVVGAGMAAAALAAEAGMVAAGAAVGATGAAVVGGGVGAGLAATVGCMEKEEDERLLEGDREPLLQEE
modifications: lentiviral expression
notes: as for B1
B8 was tested, and the “Percent Infected R1” value was 86.6% and the “Z score R1” value was −0.03.
